Assay results as given in patent US20150344570A1 (published 2015).

Assays:
FcγRIIb [1] = biological target: T1, FcγRIIb (human, UniProt P31994 43-217); test: SPR (Biacore), antibody captured, FcγR analyte; binding relative to GpH7-A5/GpH7-B3/GpL16-k0 = 100
T1 construct: extracellular domain; also called FcgRIIb; 2b
T1 sequence (looked up): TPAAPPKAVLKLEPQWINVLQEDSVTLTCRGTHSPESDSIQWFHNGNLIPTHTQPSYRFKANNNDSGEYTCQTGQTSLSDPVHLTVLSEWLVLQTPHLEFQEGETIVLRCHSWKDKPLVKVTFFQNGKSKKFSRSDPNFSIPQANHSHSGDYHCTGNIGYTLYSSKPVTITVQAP

FcγRIIa H = biological target: T2, FcγRIIa H (human, UniProt P12318 34-217); test: as above
T2 construct: extracellular domain; also called FcgRIIa H; FcγRIIa type H
T2 sequence (looked up): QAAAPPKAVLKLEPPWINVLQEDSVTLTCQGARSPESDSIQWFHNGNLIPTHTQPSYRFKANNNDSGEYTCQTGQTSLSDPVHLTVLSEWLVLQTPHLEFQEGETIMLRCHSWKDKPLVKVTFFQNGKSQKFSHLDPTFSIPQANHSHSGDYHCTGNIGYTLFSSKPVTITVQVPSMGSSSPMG

[2] = biological target: T3, FcγRIIa H (FcγRIIa type H, His at position 131), extracellular domain with C-terminal His tag (human, UniProt P12318 34-217); test: SPR Biacore, relative binding, GpH7-B3/GpL16-k0 (HoCon Ab)=100
T3 construct: extracellular domain; also called FcgRIIa H; 2aH
T3 sequence (looked up): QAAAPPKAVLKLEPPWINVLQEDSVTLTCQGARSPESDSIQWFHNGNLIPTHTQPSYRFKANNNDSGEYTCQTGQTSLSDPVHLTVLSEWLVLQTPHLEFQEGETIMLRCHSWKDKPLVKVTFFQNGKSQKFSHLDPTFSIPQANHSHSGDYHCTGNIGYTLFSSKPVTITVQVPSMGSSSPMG
Protocol: Analysis of interaction between objective antibody and the FcγR was carried out using Biacore T100 (GE Healthcare). HBS-EP+ (GE Healthcare) was used as the running buffer, and the measurement temperature was set to 25° C. Chips produced by immobilizing the antigen peptide by the amine coupling method to a Series S Sencor Chip CM5 (GE Healthcare), or alternatively, chips produced by allowing preliminarily biotinylated antigen peptides to interact with and immobilize onto a Series S Sensor Chip SA (certified) (GE Healthcare) were used. Antibodies of interest were captured onto an antigen peptide-immobilized chip, and allowed to interact to each FcγR diluted with running buffer. To regenerate and repeatedly use the chip, the antibodies captured on the chip were washed off by reacting 10 mM glycine-HCl, pH 1.5.

FcγRIIb [3] = biological target: T4, FcγRIIb (human, UniProt P31994 43-217); test: SPR, relative to GpH7-A5/GpH7-B3/GpL16-k0
T4 construct: extracellular domain; also called FcgRIIb; 2b; not shown: His tag at the C terminus
T4 sequence (looked up): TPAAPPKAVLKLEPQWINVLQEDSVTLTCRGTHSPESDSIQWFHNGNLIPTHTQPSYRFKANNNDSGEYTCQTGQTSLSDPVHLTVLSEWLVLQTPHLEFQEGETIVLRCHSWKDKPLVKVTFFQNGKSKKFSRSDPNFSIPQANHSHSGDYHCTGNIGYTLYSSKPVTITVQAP

FcγRIIa R = biological target: T5, FcγRIIa R (human, UniProt P12318 34-217); test: SPR, relative to GpH7-A5/GpH7-B3/GpL16-k0
T5 construct: extracellular domain; also called FcgRIIa R type; 2aR; not shown: His tag at the C terminus
T5 sequence (looked up): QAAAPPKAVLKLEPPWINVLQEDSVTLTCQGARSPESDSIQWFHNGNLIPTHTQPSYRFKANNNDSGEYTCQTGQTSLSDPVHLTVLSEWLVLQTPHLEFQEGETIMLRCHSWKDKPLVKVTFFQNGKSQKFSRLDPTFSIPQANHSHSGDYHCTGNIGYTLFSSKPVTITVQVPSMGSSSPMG

B1: GpH7-A5/GpH7-B3 variant Y296_20W/GpL16-k0 (antibody, human IgG1, kappa)
heavy 1: not shown
heavy 2: not shown
light: DIVMTQSPLSLPVTPGEPASISCQASESLVHSNRNTYLHWYLQKPGQSPQLLIYKVSNRFSGVPDRFSGSGSGTDFTLKISRVEAEDVGVYYCSQNTHVPPTFGQGTKVEIERTVAAPSVFIFPPSDEQLKSGTASVVCLLNNFYPREAKVQWKVDNALQSGNSQESVTEQDSKDSTYSLSSTLTLSKADYEKHKVYACEVTHQGLSSPVTKSFNRGEC
notes: Heterodimerized antibody, alteration in one H chain only; also called He Ab Y296W
He/Con_2b (FcγRIIb [1]): 103 % of control
He/Con_2aH (FcγRIIa H): 97.6 % of control

B2: GpH7-A5/GpH7-B3 variant S267_19Q/GpL16-k0 (antibody, human IgG1, kappa)
heavy 1: not shown
heavy 2: not shown
light: DIVMTQSPLSLPVTPGEPASISCQASESLVHSNRNTYLHWYLQKPGQSPQLLIYKVSNRFSGVPDRFSGSGSGTDFTLKISRVEAEDVGVYYCSQNTHVPPTFGQGTKVEIERTVAAPSVFIFPPSDEQLKSGTASVVCLLNNFYPREAKVQWKVDNALQSGNSQESVTEQDSKDSTYSLSSTLTLSKADYEKHKVYACEVTHQGLSSPVTKSFNRGEC
notes: Heterodimerized antibody, alteration in one H chain only; also called He Ab S267Q
He/Con_2b (FcγRIIb [1]): 218 % of control
He/Con_2aH (FcγRIIa H): 61.3 % of control

B3: GpH7-B3 variant A330_12R/GpL16-k0 (antibody, human IgG1, kappa)
heavy: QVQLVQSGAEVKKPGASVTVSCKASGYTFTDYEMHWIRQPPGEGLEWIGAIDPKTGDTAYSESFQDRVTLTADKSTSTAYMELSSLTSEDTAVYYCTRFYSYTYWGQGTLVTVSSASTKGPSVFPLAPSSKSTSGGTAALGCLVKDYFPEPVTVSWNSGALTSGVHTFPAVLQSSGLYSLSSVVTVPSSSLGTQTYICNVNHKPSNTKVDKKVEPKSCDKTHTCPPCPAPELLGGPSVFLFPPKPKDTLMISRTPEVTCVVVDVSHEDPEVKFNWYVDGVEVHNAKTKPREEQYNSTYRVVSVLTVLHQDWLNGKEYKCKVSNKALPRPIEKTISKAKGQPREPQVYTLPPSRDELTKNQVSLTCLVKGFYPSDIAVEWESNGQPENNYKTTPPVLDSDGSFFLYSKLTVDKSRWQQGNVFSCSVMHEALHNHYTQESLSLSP
light: DIVMTQSPLSLPVTPGEPASISCQASESLVHSNRNTYLHWYLQKPGQSPQLLIYKVSNRFSGVPDRFSGSGSGTDFTLKISRVEAEDVGVYYCSQNTHVPPTFGQGTKVEIERTVAAPSVFIFPPSDEQLKSGTASVVCLLNNFYPREAKVQWKVDNALQSGNSQESVTEQDSKDSTYSLSSTLTLSKADYEKHKVYACEVTHQGLSSPVTKSFNRGEC
notes: both H chains mutated; also called Ho Ab
Ho/Con_2aH [2]: 110 % of control

B4: GpH7-A5/GpH7-B3 variant L328_19Q/GpL16-k0 (antibody, human IgG1, kappa)
heavy 1: not shown
heavy 2: not shown
light: DIVMTQSPLSLPVTPGEPASISCQASESLVHSNRNTYLHWYLQKPGQSPQLLIYKVSNRFSGVPDRFSGSGSGTDFTLKISRVEAEDVGVYYCSQNTHVPPTFGQGTKVEIERTVAAPSVFIFPPSDEQLKSGTASVVCLLNNFYPREAKVQWKVDNALQSGNSQESVTEQDSKDSTYSLSSTLTLSKADYEKHKVYACEVTHQGLSSPVTKSFNRGEC
notes: Heterodimerized anti-glypican-3 IgG1; mutation in the GpH7-B3 chain only; also called He Ab
He/Con_2b (FcγRIIb [3]): 105 control = 100
He/Con_2aR (FcγRIIa R): 89.3 control = 100

B5: GpH7-A5/GpH7-B3 variant S239_03V/GpL16-k0 (antibody, human IgG1, kappa)
heavy 1: not shown
heavy 2: not shown
light: DIVMTQSPLSLPVTPGEPASISCQASESLVHSNRNTYLHWYLQKPGQSPQLLIYKVSNRFSGVPDRFSGSGSGTDFTLKISRVEAEDVGVYYCSQNTHVPPTFGQGTKVEIERTVAAPSVFIFPPSDEQLKSGTASVVCLLNNFYPREAKVQWKVDNALQSGNSQESVTEQDSKDSTYSLSSTLTLSKADYEKHKVYACEVTHQGLSSPVTKSFNRGEC
notes: as for B4
He/Con_2b (FcγRIIb [3]): 108 control = 100
He/Con_2aR (FcγRIIa R): 99.9 control = 100

B6: GpH7-A5/GpH7-B3 variant I332_02A/GpL16-k0 (antibody, human IgG1, kappa)
heavy 1: not shown
heavy 2: not shown
light: DIVMTQSPLSLPVTPGEPASISCQASESLVHSNRNTYLHWYLQKPGQSPQLLIYKVSNRFSGVPDRFSGSGSGTDFTLKISRVEAEDVGVYYCSQNTHVPPTFGQGTKVEIERTVAAPSVFIFPPSDEQLKSGTASVVCLLNNFYPREAKVQWKVDNALQSGNSQESVTEQDSKDSTYSLSSTLTLSKADYEKHKVYACEVTHQGLSSPVTKSFNRGEC
notes: as for B4
He/Con_2b (FcγRIIb [3]): 103 control = 100
He/Con_2aR (FcγRIIa R): 97.6 control = 100

B7: GpH7-A5/GpH7-B3 variant Y300_10E/GpL16-k0 (antibody, human IgG1, kappa)
heavy 1: not shown
heavy 2: not shown
light: DIVMTQSPLSLPVTPGEPASISCQASESLVHSNRNTYLHWYLQKPGQSPQLLIYKVSNRFSGVPDRFSGSGSGTDFTLKISRVEAEDVGVYYCSQNTHVPPTFGQGTKVEIERTVAAPSVFIFPPSDEQLKSGTASVVCLLNNFYPREAKVQWKVDNALQSGNSQESVTEQDSKDSTYSLSSTLTLSKADYEKHKVYACEVTHQGLSSPVTKSFNRGEC
notes: Heterodimerized antibody, alteration in one H chain only; also called He Ab Y300E
He/Con_2b (FcγRIIb [1]): 134 % of control
He/Con_2aH (FcγRIIa H): 97.2 % of control

B8: GpH7-A5/GpH7-B3 variant S298_06M/GpL16-k0 (antibody, human IgG1, kappa)
heavy 1: not shown
heavy 2: not shown
light: DIVMTQSPLSLPVTPGEPASISCQASESLVHSNRNTYLHWYLQKPGQSPQLLIYKVSNRFSGVPDRFSGSGSGTDFTLKISRVEAEDVGVYYCSQNTHVPPTFGQGTKVEIERTVAAPSVFIFPPSDEQLKSGTASVVCLLNNFYPREAKVQWKVDNALQSGNSQESVTEQDSKDSTYSLSSTLTLSKADYEKHKVYACEVTHQGLSSPVTKSFNRGEC
notes: Heterodimerized antibody, alteration in one H chain only; also called He Ab S298M
He/Con_2b (FcγRIIb [1]): 102 % of control
He/Con_2aH (FcγRIIa H): 98.1 % of control

B9: GpH7-A5/GpH7-B3 variant S298_08L/GpL16-k0 (antibody, human IgG1, kappa)
heavy 1: not shown
heavy 2: not shown
light: DIVMTQSPLSLPVTPGEPASISCQASESLVHSNRNTYLHWYLQKPGQSPQLLIYKVSNRFSGVPDRFSGSGSGTDFTLKISRVEAEDVGVYYCSQNTHVPPTFGQGTKVEIERTVAAPSVFIFPPSDEQLKSGTASVVCLLNNFYPREAKVQWKVDNALQSGNSQESVTEQDSKDSTYSLSSTLTLSKADYEKHKVYACEVTHQGLSSPVTKSFNRGEC
notes: Heterodimerized antibody, alteration in one H chain only; also called He Ab S298L
He/Con_2b (FcγRIIb [1]): 108 % of control
He/Con_2aH (FcγRIIa H): 85 % of control
